Article PMC4265154, “A reversible Renilla luciferase protein complementation assay for rapid identification of protein–protein interactions reveals the existence of an interaction network involved in xyloglucan biosynthesis in the plant Golgi apparatus” (Journal of Experimental Botany, 2014)
Each block holds one molecule with its values, some of them ahead of it.

B1: MURUS3/KATAMARI1 (MUR3) fused to hRluc fragment [F1] or [F2] (natural protein, Arabidopsis thaliana, UniProt Q7XJ98 1-619, looked up)
chain: MFPRVSMRRRSAEVSPTEPMEKGNGKNQTNRICLLVALSLFFWALLLYFHFVVLGTSNIDKQLQLQPSYAQSQPSSVSLRVDKFPIEPHAAPSKPPPKEPLVTIDKPILPPAPVANSSSTFKPPRIVESGKKQEFSFIRALKTVDNKSDPCGGKYIYVHNLPSKFNEDMLRDCKKLSLWTNMCKFTTNAGLGPPLENVEGVFSDEGWYATNQFAVDVIFSNRMKQYKCLTNDSSLAAAIFVPFYAGFDIARYLWGYNISRRDAASLELVDWLMKRPEWDIMRGKDHFLVAGRITWDFRRLSEEETDWGNKLLFLPAAKNMSMLVVESSPWNANDFGIPYPTYFHPAKDSEVFEWQDRMRNLERKWLFSFAGAPRPDNPKSIRGQIIDQCRNSNVGKLLECDFGESKCHAPSSIMQMFQSSLFCLQPQGDSYTRRSAFDSMLAGCIPVFFHPGSAYTQYTWHLPKNYTTYSVFIPEDDVRKRNISIEERLLQIPAKQVKIMRENVINLIPRLIYADPRSELETQKDAFDVSVQAVIDKVTRLRKNMIEGRTEYDYFVEENSWKYALLEEGQREAGGHVWDPFFSKPKPGEDGSSDGNGGTTISADAAKNSWKSEQRDKTQ
notes: Made in two forms, one with [F1]-HA and one with [F2]-FLAG; a chain carries one of the two; also called MUR3-[F1]; MUR3-[F2]; source: N. benthamiana leaves, transient expression (A. tumefaciens GV3101, with p19), in crude leaf macerate; not shown: hRluc[F1]; (Renilla luciferase residues 1-110) with HA, C-terminal, kept; hRluc[F2]; (Renilla luciferase residues 111-310) with FLAG, C-terminal, kept
B2: ARABINAN DEFICIENT1 (ARAD1) fused to hRluc fragment [F1] or [F2] (natural protein, Arabidopsis thaliana, UniProt Q6DBG8 1-447, looked up)
chain: MARKSSLLKRAAIAVVSVIAIYVILNASVSRSLPSSSDLPRQLIREDDDDEGRAPIQPRVRVYMYNLPKRFTYGLIEQHSIARGGIKKPVGDVTTLKYPGHQHMHEWYLFSDLNQPEVDRSGSPIVRVSDPADADLFYVPVFSSLSLIVNAGRPVEAGSGYSDEKMQEGLVEWLEGQEWWRRNAGRDHVIPAGDPNALYRILDRVKNAVLLVSDFGRLRPDQGSFVKDVVIPYSHRVNLFNGEIGVEDRNTLLFFMGNRYRKDGGKVRDLLFQVLEKEDDVTIKHGTQSRENRRAATKGMHTSKFCLNPAGDTPSACRLFDSIVSLCVPLIVSDSIELPFEDVIDYRKFSIFVEANAALQPGFLVQMLRKIKTKKILEYQREMKSVRRYFDYDNPNGAVKEIWRQVSHKLPLIKLMSNRDRRLVLRNLTEPNCSCLCTNQTGLITSI
notes: Made in two forms, one with [F1]-HA and one with [F2]-FLAG; a chain carries one of the two; also called ARAD1-[F1]; ARAD1-[F2]; source: N. benthamiana leaves, transient expression (A. tumefaciens GV3101, with p19), in crude leaf macerate; not shown: hRluc[F1]; (Renilla luciferase residues 1-110) with HA, C-terminal, kept; hRluc[F2]; (Renilla luciferase residues 111-310) with FLAG, C-terminal, kept
B3: GALACTURONOSYLTRANSFERASE1 (GAUT1) fused to hRluc fragment [F1] or [F2] (natural protein, Arabidopsis thaliana, UniProt Q9LE59 1-673, looked up)
chain: MALKRGLSGVNRIRGSGGGSRSVLVLLIFFCVFAPLCFFVGRGVYIDSSNDYSIVSVKQNLDWRERLAMQSVRSLFSKEILDVIATSTADLGPLSLDSFKKNNLSASWRGTGVDPSFRHSENPATPDVKSNNLNEKRDSISKDSIHQKVETPTKIHRRQLREKRREMRANELVQHNDDTILKLENAAIERSKSVDSAVLGKYSIWRRENENDNSDSNIRLMRDQVIMARVYSGIAKLKNKNDLLQELQARLKDSQRVLGEATSDADLPRSAHEKLRAMGQVLAKAKMQLYDCKLVTGKLRAMLQTADEQVRSLKKQSTFLAQLAAKTIPNPIHCLSMRLTIDYYLLSPEKRKFPRSENLENPNLYHYALFSDNVLAASVVVNSTIMNAKDPSKHVFHLVTDKLNFGAMNMWFLLNPPGKATIHVENVDEFKWLNSSYCPVLRQLESAAMREYYFKADHPTSGSSNLKYRNPKYLSMLNHLRFYLPEVYPKLNKILFLDDDIIVQKDLTPLWEVNLNGKVNGAVETCGESFHRFDKYLNFSNPHIARNFNPNACGWAYGMNMFDLKEWKKRDITGIYHKWQNMNENRTLWKLGTLPPGLITFYGLTHPLNKAWHVLGLGYNPSIDKKDIENAAVVHYNGNMKPWLELAMSKYRPYWTKYIKFDHPYLRRCNLHE
notes: Made in two forms, one with [F1]-HA and one with [F2]-FLAG; a chain carries one of the two; also called GAUT1-[F1]; GAUT1-[F2]; source: N. benthamiana leaves, transient expression (A. tumefaciens GV3101, with p19), in crude leaf macerate; not shown: hRluc[F1]; (Renilla luciferase residues 1-110) with HA, C-terminal, kept; hRluc[F2]; (Renilla luciferase residues 111-310) with FLAG, C-terminal, kept
B4: GALACTURONOSYLTRANSFERASE7 (GAUT7) fused to hRluc fragment [F1] or [F2] (natural protein, Arabidopsis thaliana, UniProt Q9ZVI7 1-619, looked up)
chain: MKGGGGGGGGGGGGKRRWKVLVIGVLVLVILSMLVPLAFLLGLHNGFHSPGFVTVQPASSFESFTRINATKHTQRDVSERVDEVLQKINPVLPKKSDINVGSRDVNATSGTDSKKRGLPVSPTVVANPSPANKTKSEASYTGVQRKIVSGDETWRTCEVKYGSYCLWREENKEPMKDAKVKQMKDQLFVARAYYPSIAKMPSQSKLTRDMKQNIQEFERILSESSQDADLPPQVDKKLQKMEAVIAKAKSFPVDCNNVDKKLRQILDLTEDEASFHMKQSVFLYQLAVQTMPKSLHCLSMRLTVEHFKSDSLEDPISEKFSDPSLLHFVIISDNILASSVVINSTVVHARDSKNFVFHVLTDEQNYFAMKQWFIRNPCKQSTVQVLNIEKLELDDSDMKLSLSAEFRVSFPSGDLLASQQNRTHYLSLFSQSHYLLPKLFDKLEKVVILDDDVVVQRDLSPLWDLDMEGKVNGAVKSCTVRLGQLRSLKRGNFDTNACLWMSGLNVVDLARWRALGVSETYQKYYKEMSSGDESSEAIALQASLLTFQDQVYALDDKWALSGLGYDYYINAQAIKNAAILHYNGNMKPWLELGIPNYKNYWRRHLSREDRFLSDCNVNP
notes: Made in two forms, one with [F1]-HA and one with [F2]-FLAG; a chain carries one of the two; also called GAUT7-[F1]; GAUT7-[F2]; source: N. benthamiana leaves, transient expression (A. tumefaciens GV3101, with p19), in crude leaf macerate; not shown: hRluc[F1]; (Renilla luciferase residues 1-110) with HA, C-terminal, kept; hRluc[F2]; (Renilla luciferase residues 111-310) with FLAG, C-terminal, kept

Assays:
Assay in all cases: split reporter (BiFC, NanoBiT); Rluc-PCA: proteins with C-terminal hRluc[F1]-HA and hRluc[F2]-FLAG co-expressed with p19 in N. benthamiana leaves for 72 h (Agrobacterium OD600 0.2 each, p19 0.05); pooled leaf discs macerated in 0.5 M NaCl, 0.1 M potassium phosphate pH 7.4, 1 mM EDTA, 0.02% BSA, protease inhibitors; 10 uM coelenterazine-h, luminescence 30 s; compared with p19 alone
[1] = molecular target: FUCO…1 (FUT1) fused to hRluc fragment [F1] or [F2] (Arabidopsis thaliana) (UniProt Q9SWH5)
[2] = molecular target: the molecule itself
[3] = molecular target: B4; details: partners not purified
[4] = molecular target: B3; details: partners not purified

FUCO…1 (FUT1) fused to hRluc fragment [F1] or [F2] (Arabidopsis thaliana), sequence (Q9SWH5 whole entry, the tested form may be a part): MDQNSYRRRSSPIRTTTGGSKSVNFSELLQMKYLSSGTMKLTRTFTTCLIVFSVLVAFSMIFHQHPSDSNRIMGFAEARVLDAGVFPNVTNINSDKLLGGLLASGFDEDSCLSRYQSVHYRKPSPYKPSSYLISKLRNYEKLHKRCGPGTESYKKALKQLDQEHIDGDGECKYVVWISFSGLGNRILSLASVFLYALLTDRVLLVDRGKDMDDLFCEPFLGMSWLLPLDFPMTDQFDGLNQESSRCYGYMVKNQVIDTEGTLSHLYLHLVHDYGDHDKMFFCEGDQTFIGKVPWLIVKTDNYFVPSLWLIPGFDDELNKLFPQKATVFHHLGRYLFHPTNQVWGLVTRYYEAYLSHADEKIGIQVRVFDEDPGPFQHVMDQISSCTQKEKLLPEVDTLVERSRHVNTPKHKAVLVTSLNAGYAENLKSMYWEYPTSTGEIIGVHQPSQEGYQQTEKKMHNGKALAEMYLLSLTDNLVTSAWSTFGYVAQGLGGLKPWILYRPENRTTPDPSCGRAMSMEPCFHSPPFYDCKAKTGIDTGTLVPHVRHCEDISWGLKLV

- Log10(RLU) [1]: 3.76 Log10(RLU)
Molecule: XXT5 fused to hRluc fragment [F1] or [F2] (from UniProt Q9CA75 1-457) (natural protein)

Molecule: B1
- Log10(RLU) [2]: 4.75 Log10(RLU)

Molecule: B2
- Log10(RLU) [2]: 4.75 Log10(RLU)

Molecule: B3
- Log10(RLU) [3]: 4.71 Log10(RLU)

Molecule: B4
- Log10(RLU) [4]: 4.71 Log10(RLU)
